Source: US20140120555A1

Experiments:
[1] = biological target: human CXCR4 (Chemokine receptor 4) (human) (UniProt P61073); experiment: FACS on Hela cervix cancer cells (endogenous CXCR4), 10 µg/ml antibody
[2] = biological target: human CXCR4 (Chemokine receptor 4) (human) (UniProt P61073); experiment: FACS on MDA-MB-231 breast cancer cells (endogenous CXCR4), 10 µg/ml antibody
[3] = biological target: human CXCR4 (Chemokine receptor 4) (human) (UniProt P61073); experiment: FACS on NIH3T3-CXCR4 transfected cells, 10 µg/ml antibody
[4] = biological target: human CXCR4 (Chemokine receptor 4) (human) (UniProt P61073); experiment: FACS on U937 promyelocytic cancer cells (endogenous CXCR4), 10 µg/ml antibody

Sequence of human CXCR4 (Chemokine receptor 4) (human) (P61073 whole entry): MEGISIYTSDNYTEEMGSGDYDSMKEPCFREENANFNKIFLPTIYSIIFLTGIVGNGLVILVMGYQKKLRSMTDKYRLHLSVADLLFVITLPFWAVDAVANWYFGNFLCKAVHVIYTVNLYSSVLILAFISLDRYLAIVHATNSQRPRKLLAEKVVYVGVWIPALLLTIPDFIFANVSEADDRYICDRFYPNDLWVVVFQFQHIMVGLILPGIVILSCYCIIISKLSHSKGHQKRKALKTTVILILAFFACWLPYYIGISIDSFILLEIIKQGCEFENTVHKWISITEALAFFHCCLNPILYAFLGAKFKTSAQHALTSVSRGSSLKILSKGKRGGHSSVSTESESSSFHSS

B1: murine monoclonal antibody 515H7 (hybridoma CNCM I-4019) (antibody, V domains shown)
VH: EVNLVESGGGLVQPGGSLRLSCATSGFTFTDNYMSWVRQPPGKALEWLGFIRNKANGYTTDYSASVRGRFTISRDNSQSILYLQMNALRAEDSATYYCARDVGSNYFDYWGQGTTLTVSS
VL: DIVMSQSPSSLAVSAGEKVTMSCKSSQSLFNSRTRKNYLAWYQQKPGQSPKLLIYWASARDSGVPARFTGSGSETYFTLTISRVQAEDLAVYYCMQSFNLRTFGGGTKLEIK
modifications: Biotinylated when used as tracer in the competition assay of Example 3 (site not stated); unlabelled in Example 2.
- MFI [1]: 1850 MFI
- MFI [2]: 239 MFI
- MFI [3]: 2750 MFI
- MFI [4]: 645 MFI
